Results published in patent publication US20260109761A1 (IP2IPO INNOVATIONS, published 2026).

Experiments:
huZIP12-ECD-GST [1] = target: T1, huZIP12-ECD-GST (human, UniProt Q504Y0 24-202); experiment: SPR single cycle kinetics (Biacore): mAb captured on protein A, huZIP12-ECD-GST injected at 2.34-600 nM, extended dissociation
T1 construct: also called hZIP12-ECD-GST; human ZIP12-ECD-GST; not shown: glutathione S-transferase (GST) tag
Description: (§1) Single Cycle Kinetics (SCK) involves first capturing the mAb onto the protein A sensor surface and then sequentially injecting a series of concentrations of huZIP12-ECD-GST over the surface starting at the lowest concentration and ending with the highest concentration. The final concentration is followed by a dissociation phase where buffer only is passed across the surface followed by regeneration, where the remaining bound huZIP12-ECD-GST is removed from the surface by injection of a 10 mM Glycine pH 1.5 and 50 mM NaOH solution. The SCK is repeated for each monoclonal antibody providing duplicate data and the kinetics of each interaction is evaluated by the Biacore software.
A selection of the higher affinity antibody variants were re-tested at a lower concentration series with an extended dissociation time with the objective of obtaining a better assessment of the binding kinetics. Referring now to FIG. 7, there are shown the data for the monoclonal antibodies that were re-tested to optimise the binding kinetic data. Once again, three antibody variants, H3_W99H_L1, H3_W99HL2 and H3_W99H_VL-par, all appear to have a higher affinity than the parent antibody. The on-rate (ka), off-rate (kd) and overall affinity measurement (KD) are all improved compared to the 51B12 VH_VL_par parent antibody.

[2] = target: T2, LIN15 35-49 SEQ ID No: 224; experiment: peptide-array ELISA on mimics of the human ZIP12 ECD (peroxidase conjugate, ABTS, CCD read-out); antibody concentration of this value not given
T2 peptide: RSRGSSGQPADLLQV
Description: (§2) The binding of antibody to each of the synthesized peptides was tested in a peptide-based ELISA. The peptide arrays were incubated with primary antibody solution (overnight at 4° C.). After washing, the peptide arrays were incubated with a 1/1000 dilution of an appropriate antibody peroxidase conjugate for one hour at 25° C. After washing, the peroxidase substrate 2,2′-azino-di-3-ethylbenzthiazoline sulfonate (ABTS) and […] of 3 percent H2O2 were added. After one hour, the colour development was measured. The colour development was quantified with a charge coupled device—camera and an image processing system.

[3] = target: T3, HEL19 32-50 SEQ ID No: 242; experiment: as above
T3 construct: alpha-helical mimic
T3 peptide: CQDSCSRGSSGQPADLLQV
Description: as §2

[4] = target: T4, HEL19 33-51 SEQ ID No: 243; experiment: as above
T4 construct: alpha-helical mimic
T4 peptide: CDSRCRGSSGQPADLLQVL
Description: as §2

[5] = target: T5, LIN15 34-48 SEQ ID No: 223; experiment: as above
T5 peptide: SRSRGSSGQPADLLQ
Description: as §2

[6] = target: T6, LOOP15 37-51 SEQ ID No: 240; experiment: as above
T6 construct: constrained mimic
T6 peptide: CRGSSGQPADLLQVC
Description: as §2

huZIP12-ECD-GST [7] = target: T1, huZIP12-ECD-GST; experiment: SPR single cycle kinetics, mAb captured on protein A, ZIP12-ECD-GST injected; human ZIP12-ECD-GST; Example 8 cross-species SCK (FIG. 12 average)
From the text: as §1, with “Surface plasmon resonance (SPR) is a label free biophysical technique that allows the direct measurement of biomolecular interactions. A single cycle kinetics (SCK) SPR direct binding assay was developed to characterise antibody binding to human, cyno, pig and canine ZIP12 fusion proteins. This assay was used to characterise the binding kinetics of the monoclonal antibody, 51B12 W99H_L1 against each of the four proteins (defined by kon, koff, KD). Single” for “Single”, “of ZIP12-ECD-GST” for “of huZIP12-ECD-GST”

T1 sequence (Q504Y0 24-202): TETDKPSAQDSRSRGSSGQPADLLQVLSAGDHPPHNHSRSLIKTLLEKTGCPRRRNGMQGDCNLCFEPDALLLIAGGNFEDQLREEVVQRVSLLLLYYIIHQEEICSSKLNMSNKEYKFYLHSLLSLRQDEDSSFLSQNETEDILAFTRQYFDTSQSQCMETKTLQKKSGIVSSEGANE

B1: H3_W99H_L1 (antibody, V domains shown)
VH: QVQLVESGGGVVQPGRSLRLSCAASGFTFSDYGMHWVRQAPGKGLEWVAYISSGGTTIYYADTVKGRFTISRDNSKNTLYLQMNSLRAEDTAVYYCARHTNLYAMDYWGQGTTVTVSS
VL: DIVLTQSPDSLAVSLGERATINCRASKSVSTQGYSYMHWYQQKPGQPPKFLIYLASNLESGVPDRFSGSGSGTDFTLTISSLQAEDVAVYYCQHSREVPYTFGGGTKVEIKR
notes: Fc null human IgG1 / human kappa
huZIP12-ECD-GST [1]
  Kd: 0.314 nM
  koff: 3.14e-05 s⁻¹
  kon: 99900 M⁻¹ s⁻¹
[2]
  value: 2460
[3]
  value: 2140
[4]
  value: 2610
[5]
  value: 1650
[6]
  value: 1830
huZIP12-ECD-GST [7]
  Kd: 4.02 nM
